Laboratory results from article PMC6260798 (Biochemistry, 2018).
Where two headings read alike, the source gives them in different places.

Key:
[1] = molecular target: T1, UreE (Helicobacter pylori, UniProt Q09064); assay: ITC
T1 chain: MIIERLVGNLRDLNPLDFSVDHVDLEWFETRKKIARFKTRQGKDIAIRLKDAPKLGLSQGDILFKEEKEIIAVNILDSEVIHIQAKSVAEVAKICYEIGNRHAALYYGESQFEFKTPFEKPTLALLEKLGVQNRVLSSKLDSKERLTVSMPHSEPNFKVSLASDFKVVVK

[2] = molecular target: T1, UreE; assay: fluorescence titration
[3] = molecular target: T2, Helicobacter pylori UreE homodimer (UreE2) (Helicobacter pylori, UniProt Q09064 1-170); assay: SEC-MALS
T2 sequence: T1 chain

[4] = molecular target: T2, Helicobacter pylori UreE homodimer …; assay: ITC
[5] = molecular target: T2, Helicobacter pylori UreE homodimer …; assay: ITC; remark: listed apart in the source

B1: HypA (protein)
chain: MHEYSVVSSLIALCEEHAKKNQAHKIERVVVGIGERSAMDKSLFVSAFETFREESLVCKDAILDIVDEKVELECKDCSHVFKPNALDYGVCEKCHSKNVIITQGNEMRLLSLEMLAE
modifications: Ni,Zn-HypA
- Kd [1]: ~0.6 nM

B2: HypA (protein)
chain: B1 chain
modifications: apo,Zn-HypA, NHS640-labelled UreE2
- Kd [2]: ~2000 nM

B3: Helicobacter pylori HypA (wild type; apo,Zn-HypA or Ni,Zn-HypA) (natural protein, UniProt P0A0U4 1-117, looked up)
chain: B1 chain
- stoichiometry N [3]: 1 HypA per UreE2
- Kd [4]: 1200 nM
- stoichiometry N [4]: 1.4 Sites
- Kd [5]: 900 nM
- stoichiometry N [5]: 1.4 Sites
